Laboratory results: patent US20260226500A1
Several values for one entry are separate records, joined by “and”; a condition that tells them apart may be missing. Identical values can stand only once.

Assays:
[1] = target: OT-1 TCR (OVA-restricted T cell receptor) (mouse)
[2] = target: P14 TCR (gp33-specific T cell receptor) (mouse)
P14 TCR (gp33-specific T cell receptor) (mouse), sequence (chain, as listed by the source limits assumed): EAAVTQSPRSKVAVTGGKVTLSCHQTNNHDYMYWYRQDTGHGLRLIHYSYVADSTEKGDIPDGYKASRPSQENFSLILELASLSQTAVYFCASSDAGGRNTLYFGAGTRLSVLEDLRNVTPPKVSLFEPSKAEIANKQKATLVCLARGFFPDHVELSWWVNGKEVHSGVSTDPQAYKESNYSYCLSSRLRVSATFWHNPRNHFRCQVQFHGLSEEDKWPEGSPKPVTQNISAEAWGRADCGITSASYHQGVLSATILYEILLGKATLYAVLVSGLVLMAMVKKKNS

OT-1 TCR (OVA-restricted T cell receptor) (mouse), sequence (chain, as listed by the source limits assumed, chain 1 of 2): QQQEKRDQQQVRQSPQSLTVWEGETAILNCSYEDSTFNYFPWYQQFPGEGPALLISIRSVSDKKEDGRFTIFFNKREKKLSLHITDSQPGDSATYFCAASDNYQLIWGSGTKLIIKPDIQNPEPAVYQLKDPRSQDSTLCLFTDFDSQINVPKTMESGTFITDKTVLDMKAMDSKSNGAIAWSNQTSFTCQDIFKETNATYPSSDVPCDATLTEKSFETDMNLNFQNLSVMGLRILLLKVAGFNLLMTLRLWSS
OT-1 TCR (OVA-restricted T cell receptor) (mouse), sequence (chain, as listed by the source limits assumed, chain 2 of 2): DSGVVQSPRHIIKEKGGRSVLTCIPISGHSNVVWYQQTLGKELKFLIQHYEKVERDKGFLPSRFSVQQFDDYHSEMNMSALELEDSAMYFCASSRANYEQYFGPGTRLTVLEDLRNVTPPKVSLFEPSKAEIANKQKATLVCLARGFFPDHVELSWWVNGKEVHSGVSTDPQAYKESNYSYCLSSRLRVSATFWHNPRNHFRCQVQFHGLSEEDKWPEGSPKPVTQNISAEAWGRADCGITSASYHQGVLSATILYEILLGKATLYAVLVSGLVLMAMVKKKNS

Substance	percent OVA Pentamer+ GFP+ cells (Q2) (% (unit not given)) [1]	percent OVA Pentamer+ GFP- cells (Q3, upper left quadrant) (% (unit not given)) [1]	percent P14 TCR+ GFP- cells (Q1) (% (unit not given)) [2]
OVA Pentamer (peptide-MHC)	6.66	26	–
P14 TCR (y-axis stain) (antibody)	–	–	89.5 and 96.7 and 36.5
